Substrate in series [1]: CSCC[C@H](N)C(=O)O
The series is described as follows: purified protein, by the assay type. Conditions: 25.0 °C.

Substrate in series [2]: C#CCCC(N)C(=O)O
The series is described as follows: ATP-PPi exchange assay: activation of methionine and methionine analogues by MetRS. The class given is biochemical, E. coli. Conditions: other: ATP-PPi exchange, purified truncated MetRS; 25.0 °C.

Substrate in series [3]: C/C=C/CC(N)C(=O)O
The description is as above. The class given is biochemical, E. coli. Conditions: 25.0 °C.

Substrate in series [4]: C=CCCC(N)C(=O)O
Described as above. The format is biochemical, E. coli. Conditions: other: ATP-PPi exchange, purified truncated MetRS; 25.0 °C.

Substrate in series [5]: CCCC[C@H](N)C(=O)O
Described as above. The format is biochemical, E. coli. Conditions: other: ATP-PPi exchange, purified truncated MetRS; 25.0 °C.

The mark [6] stands for this setting: other: ATP-PPi exchange, purified truncated MetRS.
The mark [7] stands for this setting: other: Example I text, 75 nM enzyme.

B1: methionyl tRNA synthetase (MetRS) (Escherichia coli K-12) (protein)
chain: MTQVAKKILVTCALPYANGSIHLGHMLEHIQADVWVRYQRMRGHEVNFICADDAHGTPIMLKAQQLGITPEQMIGEMSQEHQTDFAGFNISYDNYHSTHSEENRQLSELIYSRLKENGFIKNRTISQLYDPEKGMFLPDRFVKGTCPKCKSPDQYGDNCEVCGATYSPTELIEPKSVVSGATPVMRDSEHFFFDLPSFSEMLQAWTRSGALQEQVANKMQEWFESGLQQWDISRDAPYFGFEIPNAPGKYFYVWLDAPIGYMGSFKNLCDKRGDSVSFDEYWKKDSTAELYHFIGKDIVYFHSLFWPAMLEGSNFRKPSNLFVHGYVTVNGAKMSKSRGTFIKASTWLNHFDADSLRYYYTAKLSSRIDDIDLNLEDFVQRVNADIVNKVVNLASRNAGFINKRFDGVLASELADPQLYKTFTDAAEVIGEAWESREFGKAVREIMALADLANRYVDEQAPWVVAKQEGRDADLQAICSMGINLFRVLMTYLKPVLPKLTERAEAFLNTELTWDGIQQPLLGHKVNPFKALYNRIDMRQVEALVEASK
notes: The fully active, truncated form of methionyl tRNA synthetase (MetRS) was purified from overnight cultures of JM101 cells carrying the plasmid pGG3; made in house; host or cells: E. coli JM101 carrying plasmid pGG3
The Km is the concentration of substrate that gives half-maximal velocity. One may read the kcat as the maximal rate divided by the concentration of active sites. For B1, the Km in series [1] (setting [6]) is 0.0243 ± 0.002 mM; in series [2], 2.415 ± 0.17 mM; in series [3] (setting [6]) it was 15,675 ± 250 μM; in series [4], 4.555 ± 0.2 mM; in series [5], 4.12 ± 0.9 mM. The kcat in series [1] (setting [6]) worked out at 13.3 s⁻¹; in series [2], 2.6 ± 0.3 s⁻¹; in series [3] (setting [6]), 1.82 ± 0.6 s⁻¹; in series [4] it was 1.35 ± 0.1 s⁻¹; in series [5], 2.15 ± 0.6 s⁻¹. Further, the kcat/Km in series [1] (setting [6]) was 547000 M⁻¹ s⁻¹; in series [1] (setting [7]) it was 0.54 s^−1μM^−1; in series [2] it was 1080 M⁻¹ s⁻¹; in series [3] (setting [6]), 116 M⁻¹ s⁻¹; in series [3] (setting [7]), 1.1×10^−4 s^−1μM^−1; in series [4], 296 M⁻¹ s⁻¹. Also, the kcat/Km in series [5] worked out at 522 M⁻¹ s⁻¹.

Source of the values: US7723070B2, “Overexpression of aminoacyl-tRNA synthetases for efficient production of engineered proteins containing amino acid analogues” (California Institute of Technology, priority 2000, dated 2010).
